Assay results taken from patent publication US20040014191A1, “Nitroreductase enzymes” (priority 1999, published 2004).
“Also recorded” adds a separate entry of the source. Where two headings read alike, the source gives them in different places.

Tests used:
CC1=CC(=O)c2ccccc2C1=O = assay: purified protein, by the assay type; details: pH 7.0, 37.0 °C
[1] = Nitroreductase enzyme assay with CB 1954 as substrate (HPLC); assay type: biochemical; details: for CB1954 kcat: Table 1
[2] = Nitroreductase enzyme assay with SN 23862 as substrate (HPLC); assay type: biochemical
[3] = Quinone reductase assay with menadione, cytochrome c as terminal electron acceptor; assay type: biochemical; details: for Quinone reductase: Table 6
Procedure: (§1) Assays were carried out spectrophotometrically at 37° C. in 10 mM Tris pH 7.5 using cytochrome c as terminal electron acceptor.

[4] = Flavin reductase assay with FMN and FAD; assay type: biochemical; details: for Flavin reductase: Table 6
Procedure: as §1

[5] = assay type: biochemical; details: Table 6
[6] = assay type: biochemical; details: for Cofactor: Table 6
[7] = test system: recombinant enzymes (antigens); assay: Polyclonal antisera titres by ELISA; assay type: binding; details: rabbit antiserum; for Post-boost titre: 10 days after booster; for Pre-boost titre (50%): after 8 weeks
Procedure: Polyclonal antisera were raised against recombinant enzymes by immunising rabbits with […] of protein in 50% PBS:50% Freund's complete adjuvant, total volume 400 μl. Blood was collected by ear bleed after 6-8 weeks and again 10 days after a booster immunisation of protein, and titre assessed by ELISA. 96-well plates were coated with 1 μg ml^−1 of the proteins and blocked with 10% v/v foetal calf serum (FCS), antibodies were diluted in assay buffer (1% FCS) and applied in doubling dilutions across the plate from 1 in 100 to 1 in 51 200 or 1 in 150 to 1 in 76 800. A secondary antibody conjugated with HRP (dilution 1 in 10 000) was used to develop the assay with 3,3′,5,5′-tetramethylbenzidine (TMB) as substrate.
Antisera to E. coli B NfnB and six novel proteins (Haemophilus influenzae and Campylobacter jejuni NfnB homologues, YdgI and YodC of Bacillus subtilis, YwrO of B. amyloliquefaciens and Porphyromonas gingivalis YwrO homologue) have been raised in rabbits by inoculation with 100 μg of protein in PBS+ Freund's complete adjuvant. Titres were assessed by ELISA after 8 weeks, and 10 days after a booster inoculation of a further 100 μg of protein per rabbit. Pre-immune sera were also tested.
96 well plates were coated overnight at 4° C. with the antigens at 1 μg/ml. After washing and blocking antisera were added in doubling dilutions in an appropriate range across the plates. The plates were developed using goat anti-rabbit IgG peroxidase conjugate with TMB as substrate, and read at 450 nm.

[8] = substrate: CC1=CC(=O)c2ccccc2C1=O; assay: Substrate and cofactor specificity for YdgI; assay type: biochemical, Bacillus subtilis; details: other: cofactor NADH, 37° C., 10 mM Tris pH 7.5, pH 7.5
Procedure: (§2) Quantitative assays using CB 1954 or SN 23862 as substrate were carried out at 37° C. by HPLC as previously described (2) (3). […] Incubation times varied according to the enzyme activity being studied.

[9] = substrate: Cc1cc2nc3c(=O)[nH]c(=O)nc-3n(C[C@H](O)[C@H](O)[C@H](O)COP(=O)(O)O)c2cc1C; assay: Substrate and cofactor specificity for YdgI; assay type: biochemical, Bacillus subtilis
Procedure: as §2

[10] = substrate: Cc1cc2nc3c(=O)[nH]c(=O)nc-3n(C[C@H](O)[C@H](O)[C@H](O)COP(=O)(O)OP(=O)(O)OC[C@H]3O[C@@H](n4cnc5c(N)ncnc54)[C@H](O)[C@@H]3O)c2cc1C; assay: Substrate and cofactor specificity for YdgI; assay type: biochemical, Bacillus subtilis; details: other: cofactor NADH, 37° C., 10 mM Tris pH 7.5, pH 7.5
Procedure: as §2

[11] = test system: recombinant enzymes (antigens); assay: Western blots of antigens with rabbit antisera; assay type: binding; details: antisera 1/10000 or 1/20000, ECL detection
Procedure: Recombinant enzymes were run on SDS PAGE 4-20% gradient at 0.05, 0.5, 5, 50 and 500 ng with 500 ng of the other antigens to test cross-reactivity. The antisera were added at a dilution of 1/10 000 or 1/20 000. Secondary antibody dilutions were as shown above and detection was by ECL (Amersham).
Antigens were run on SDS PAGE 4-20% gradient at 0.05, 0.5, 5, 50 and 500 ng with 500 ng of other antigens to test cross-reactivity. The antisera were added at a dilution of 1/10000 (α-P. gingivalis YwrO, α-YwrO BAM and α-H. influenzae NfnB) or 1/20000 (α-E. coli B NfnB and α-YdgI). Secondary antibody dilutions were as shown above and detection was by ECL.

V79 cells = assay: In vitro cytotoxicity test, prodrug + enzyme + cofactor, SRB assay; assay type: cell-based
Procedure: Microtitre plates (96 well) were obtained pre-seeded with V79 cells at 10,000 cells/ml (European Collection of Animal Cell Cultures, ECACC) in DMEM+10% foetal calf serum. All treatments were prepared on duplicate plates and transferred to the cells prior to adding enzyme (10 μl) to the appropriate wells. […] Enzymes were diluted in sterile PBS. All aqueous solutions were filter sterilised before use and operations carried out aseptically in a laminar flow hood. […] Cytotoxicity was quantified by sulphorhodamine B (SRB) assay. Briefly, the growth medium was removed and the cells fixed by addition of 100 μl per well of cold 10% TCA for 30 min. The TCA was removed and the fixed cells washed with water before adding 100 μl per well of 0.4% dye in 1% acetic acid and incubating at room temperature for 30 min. Excess dye was removed and the wells washed 4 times with 1% acetic acid. After air drying at room temperature the dye was solubilised by adding 100 μl of 10 mM Tris to each well and shaking for 15 min. […] Cytotoxicity towards treated cells was expressed as % of A492 of untreated controls and statistical analysis was performed using the Mann-Whitney test. ED50's were caculated using probit analysis.

[12] = Table 2, recombinant B. subtilis enzymes, crude lysates
[13] = Table 6, 37° C., read-out: Km CB 1954
[14] = other: cofactor NADH, 37° C., 10 mM Tris pH 7.5, pH 7.5

Row | Molecule | kcat for CB1954 (text) [1] [s⁻¹] | reduction of CB1954: activity and product formed [1] | Km [1, 13] [µM] | CB 1954 product ([1]; Table 6, recombinant enzymes) [HX] | activity with SN23862 [2] | activity with menadione / quinone reductase [3] | Quinone reductase [3] | flavin reductase activity [4] | Flavin reductase [4] | Azo-Reductase [5] | Cofactor [6] | Post-boost titre [7] | Pre-boost titre (50%) [7] | CB1954 kcat [1] [s⁻¹] | CB 1954 product ([1]; Table 1, purified enzymes) | SN23862 kcat ([2]; Table 1) | amount of antigen detected by its antiserum in Western blot [11] [ng] | other results
1 | H. influenzae NfnB (Haemophilus influenzae Rd KW20) | – | – | – | – | – | – | – | – | – | – | – | – | – | – | – | – | – | Km (CC1=CC(=O)c2ccccc2C1=O; other: 1 mM NADH): 0.8 ± 0.2 μM μM; Km (CC1=CC(=O)c2ccccc2C1=O; other: 1 mM NADPH): 9.0 ± 0.6 μM μM
2 | YdgI (Bacillus subtilis subsp. subtilis str. 168) (protein, made in house; host or cells: E. coli (pMTL1015; HMS174)) MIKTNDFMEIMKGRRSIRNYDPAVKISKEEMTEILEEATTAPSSVNAQPWRFLVIDSPEGKEKLAPLASFNQTQVTTSSAVIAVFADMNNADYLEEIYSKAVELGYMPQEVKDRQIAALTAHFEKLPAQVNRETILIDGGLVSMQLMLTARAHGYDTNPIGGYDKENIAETFGLDKERYVPVMLLSIGKAADEGYASYRLPIDTIAEWK | 30.3 | both the 2HX and 4HX derivatives | 3860 | 4 | active against both CB1954 and SN23862 | high affinity for menadione and flavins | Yes | high affinity for menadione and flavins | Yes | Yes | NADPH | 25000 | 4900 | – | – | – | – | kcat (CB 1954) [1]: 30.3 s⁻¹; CB1954 (product formed / activity) [1, 12]: 2/4HX; kcat for CB1954 (text) ([1]; listed as SEQ ID NO: 9): about 15; SN23862 (activity) [2, 12]: active; SN 23862 acitvity ([2]; Table 6): Yes; activity with SN23862 ([2]; listed as YdgI BS): did not show Michaelis-Menten kinetics; Km [8]: 127.0 ± 10 µM; kcat [8]: 628 ± 16.8 s⁻¹; kcat/Km [8]: 4.94e+06 M⁻¹ s⁻¹; Km [9, 14]: 158.0 ± 16 µM; kcat [9, 14]: 3000 ± 94.8 s⁻¹; kcat/Km [9, 14]: 1.9e+07 M⁻¹ s⁻¹; Km ([9]; other: cofactor NADPH, 37.0 °C): 12.0 ± 1.4 µM; kcat ([9]; other: cofactor NADPH, 37.0 °C): 345 ± 7.6 s⁻¹; kcat/Km ([9]; other: cofactor NADPH, 37.0 °C): 2.87e+07 M⁻¹ s⁻¹; Km [10]: 150.0 ± 19.0 µM; kcat [10]: 2580 ± 79 s⁻¹; kcat/Km [10]: 1.72e+07 M⁻¹ s⁻¹
3 | Bam YwrO: nitroreductase from B. amyloliquefaciens, SEQ ID NO: 2 (protein, listed as Bacillus amyloliquefaciens) VKVLVLAVHPDMENSAVNKAWAEELKKHDELTVRELYKEYPDGQIDAEKERQLCEQYDRIVFQFPLYWYSAPPLLKTWMDHVLSYGWAYGSKGKALHGKELMLAVSVGAGEDAYQAGGSNHFTLSELLRPFQAMANFTGMTYLPAFALYGVNGADATDIHDNAKRLAAYIKKSF | 8.2 | 4HX product only | – | – | – | – | – | has azoreductase and flavin reductase activity | – | – | – | 2800 | 1200 | 2 | 4HX | inactive | 500 | Km ([1]; read-out: Km for CB1954): 617 µM; SN23862 Km ([2]; Table 1): inactive; activity with SN23862 ([2]; listed as YwrO BAM): not SN23862; activity with SN23862 ([2]; listed as YwrO of B. amyloliquefaciens): inactive with this substrate; Km ([3]; read-out: Km for menadione): 3.4 µM; Km ([4]; read-out: Km for FAD): 209 µM; Km ([4]; read-out: Km for FMN): 53 µM; Km ([6]; read-out: Km for NADPH as cofactor): 40 µM
4 | E. coli NfnB: the known E. coli B nitroreductase enzyme (NfnB) (protein) MDIISVALKRHSTKAFDASKKLTPEQAEQIKTLLQYSPSSTNSQPWHFIVASTEEGKARVAKSAAGNYVFNERKMLDASHVVVFCAKTAMDDVWLKLVVDQEDADGRFATPEAKAANDKGRKFFADMHRKDLHDDAEWMAKQVYLNVGNFLLGVAALGLDAVPIEGFDAAILDAEFGLKEKGYTSLVVVPVGHHSVEDFNATLPKSRLPQNITLTEV | 6 | – | – | – | – | – | – | – | – | – | – | – | – | 6 | 2/4HX | 26.4 s⁻¹ | 5 | kcat for CB1954 (text) ([1]; listed as E. coli enzyme): about 6; Km ([1]; summary statement, read-out: Km for CB1954): ~862 µM
5 | H. influenzae NfnB: nitroreductase from H. influenzae, SEQ ID NO: 17 (protein, listed as Haemophilus influenzae) MTQLTREQVLELFHQRSSTRYYDPTKKISDEDFECILECGRLSPSSVGSEPWKFLVIQNKTLREKMKPFSWGMINQLDNCSHLVVILAKKNARYDSPFFVDVMARKGLNAEQQQAALTKYKALQEEDMKLLENDRTLFDWCSKQTYIALANMLTGASALGIDSCPIEGFHYDKMNECLAEEGLFDPQEYAVSVAATFGYRSRDIAKKSRKGLDEVVKWVG | – | form the 4HX reduction product of CB1954 | 690 | 4 | weak activity with SN23862 | lacks activity with the quinone menadione | Yes | – | Weak | No | NADPH | 760 | 180 | – | – | – | – | kcat (CB 1954) ([1]; Table 6, 37° C.): 56.2 s⁻¹; SN 23862 acitvity, second number of the cell (kcat) ([2]; Table 6, HPLC assay): 39.8; Km ([2]; Table 6, HPLC assay, read-out: SN 23862 acitvity, first number of the cell (Km)): 3360 µM; flavin reductase activity ([4]; listed as H. influenzae NfnB homologue): lacks activity with the quinone menadione and flavins FMN or FAD; also recorded: little activity; in vitro cytotoxicity of CB 1954 with enzyme (V79 cells; FIG. 3): most potent; in vitro cytotoxicity of SN 23862 with enzyme (V79 cells; FIG. 4): most potent
